Molecular target: truncated core tau unit terminating at Ala-390 (human) (UniProt P10636)
Assay: ELISA tau-tau binding assay; core tau unit in the solid phase, full-length tau in the aqueous phase

Chain of truncated core tau unit terminating at Ala-390 (human) (P10636 614-707 limits assumed): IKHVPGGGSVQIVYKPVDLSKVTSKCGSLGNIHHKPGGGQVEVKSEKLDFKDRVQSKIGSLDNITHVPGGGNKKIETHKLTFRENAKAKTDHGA

With “normal full-length tau protein (the particular tau species/isoform tested)” the Kd was 8 to 25 nM.

— patent publication US6953794
